# Test: soluble on expression in E. coli; label from the status in PepcDB or PDB records
row,Sequence,soluble on expression in E. coli
1,MKFVLAVHGTRGDVEPCAAVGVELRRRGHAVHMAVPPNLIEFVESAGLTGVAYGPDSDEQINTVAAFVRNLTRAQNPLNLARAVKELFVEGWAEMGTTLTTLADGADLVMTGQTYHGVAANVAEYYDIPAAALHHFPMQVNGQIAIPSIPTPATLVRATMKVSWRLYAYVSKDADRAQRRELGLPPAPAPAVRRLAERGAPEIQAYDPVFFPGLAAEWSDRRPFVGPLTMELHSEPNEELESWIAAGTPPIYFGFGSTPVQTPVQTLAMISDVCAQLGERALIYSPAANSTRIRHADHVKRVGLVNYSTILPKCRAVVHHGGAGTTAAGLRAGMPTLILWDVADQPIWAGAVQRLKVGSAKRFTNITRGSLLKELRSILAPECAARAREISTRMTRPTAAVTAAADLLEATARQTPGSTPSSSPGR,not soluble
2,MGDYENVLMVKPKVFVYRIPPIGTSGHKAADWNLDSPAWTGRMRLVAIGKRLEMRLEDGETCDLYAKCPIDAHPGNAIEAVSDSSRYFVIRLQNDNGQQAFVGCGFQERGDAFDFNVTLQDHFRYIERSAELEKQDLSAGPSLDLAFKEGQTISINIGKKDKSAVSRPRPAPGASTGGLVPLLPPPPGAGSMIRNSRPSTTTTTASSSLSSAFAAPPPAPSSSTSTTATSGNLLDF,not soluble
3,MNKEERAKRQSKIRNFSIIAHIDHGKSTLADRILEKTNALTQREMKAQLLDSMDLERERGITIKLNAIQLNYKAKDGEEYILHLIDTPGHVDFTYEVSRSLAACEGAILVVDAAQGIEAQTLANVYLALDNNLEILPVINKIDLPSADPERVRQEVEDVIGLDASEAVLASAKAGIGIEEILEQIVEKVPAPTGDSEEPLQCMIFDSLYDPYRGVIAYIRVVNGTVKVGDKVRMMATGKEFEVTEVGVFTPKTTQRDELTVGDVGFLAASIKNVGDTRVGDTITHAKRPAAEPLAGYRKLNPMVFCGLYPIDSARYNDLRDALEKLELNDSALEFEPETSQALGFGFRCGFLGLLHMEILQERIEREFKIDLITTAPSVIYKVFLTNGEDMIVDNPSNMPDPQTIDRVEEPFVKAAIMVPNDYVGAVMEICQGKRGTFIDMQYLDETRVTLTYEIPLSEIVYDFFDQLKSNTKGYASFDYELIGYKPSKLVKMDILLNSEQVDALSFIVHRDSAYDRGKVIVEKLKELIPRQQFEVPIQATIGNKVVARSTIKAMRKNVLAKCYGGDISRKRKLLDKQKEGKKRMKSVGSVEVPQEAFMAVLKMDDN,soluble
4,MAHHHHHHMGDDCETELVEVFGFISSGREDVRKMAVQGLAQQSKDNKELFALIASSAHGPRCIDVLLQFLHAGSVALLGDVLTVLINCAADGTCTEVLVTQKVVRRAMRLIDSVEASDHPQSLQRGLEEMTLMLLSNLTASHVSAVDDLLQVTDEDLRGFYLGKLLTYYTRFTVDDGCSVEVAVAGEQQQEDGGDDNKKLSEGDAVRSNSGGNKSEELNKTVPRDLQRWILQILLNVTRVADGQELLLEDDDWLMALSDCLSSLNPRHRLLAAQCFRNCSFQRERHPGILRSRCLRVCVERLSDGAEHIGEIEMLLAEITANLMQTEAGIGLLEELNAKKHLQASVTAGKVQADTCKFLNEHVLPLLDDIVDAYVMTSGDELD,not soluble
5,MALVKIVRIETFPLFHRLEKPYGDANGFKRYRTCYLIRIITESGIDGWGECVDWLPALHVGFTKRIIPFLLGKQAGSRLSLVRTIQKWHQRAASAVSMALTEIAAKAADCSVCELWGGRYREEIPVYASFQSYSDSPQWISRSVSNVEAQLKKGFEQIKVKIGGTSFKEDVRHINALQHTAGSSITMILDANQSYDAAAAFKWERYFSEWTNIGWLEEPLPFDQPQDYAMLRSRLSVPVAGGENMKGPAQYVPLLSQRCLDIIQPDVMHVNGIDEFRDCLQLARYFGVRASAHAYDGSLSRLYALFAQACLPPWSKMKNDHIEPIEWDVMENPFTDLVSLQPSKGMVHIPKGKGIGTEINMEIVNRYKWDGSAYEGHHHHHH,soluble
6,MGSSHHHHHHGKTIFVIVPTNEEQVAFLEALAKQDELNFDWQNPPTEPGQPVVILIPSDMVEWFLEMLKAKGIPFTVYVEEGGSENLYFQGGGGGGSECNISADERMDVPSEDYDVSIMIKAIHEVQDVLTSRQFATFSEVDTEIGKTLKRYEAFGDGFERFHVNLTKDALQSNDLQKSLKDMDKRCQDRLRDCASSQKDQINDILPFIRNTSSILVHGSGNLLALTIACSIQEHEGVRFYICEGRPARKGYPHGSGEQLLEKVLATPEGMRLKDKLHKYCTIVPDSGVSSVMNSVDFVIMGAYCVTEHGGLVHSTGSLQIAIVAAFRNVPCYVLCETFKFAHIFPLSTDDLKQPENGAGEVVPLVEFVPPSMITLIFSEQGIMPPSAVADEMFRFHTAPSAPGKRR,not soluble
7,MCLEDSDAGASNEYDSSPAAWNKEDFPWSGKVKDILQNVFKLEKFRPLQLETINVTMAGKEVFLVMPTGGGKSLCYQLPALCSDGFTLVICPLISLMEDQLMVLKQLGISATMLNASSSKEHVKWVHAEMVNKNSELKLIYVTPEKIAKSKMFMSRLEKAYEARRFTRIAVDEVHCCSQWGHDFRPDYKALGILKRQFPNASLIGLTATATNHVLTDAQKILCIEKCFTFTASFNRPNLYYEVRQKPSNTEDFIEDIVKLINGRYKGQSGIIYCFSQKDSEQVTVSLQNLGIHAGAYHANLEPEDKTTVHRKWSANEIQVVVATVAFGMGIDKPDVRFVIHHSMSKSMENYYQESGRAGRDDMKADCILYYGFGDIFRISSMVVMENVGQQKLYEMVSYCQNISKCRRVLMAQHFDEVWNSEACNKMCDNCCKDSAFERKNITEYCRDLIKILKQAEELNEKLTPLKLIDSWMGKGAAKLRVAGVVAPTLPREDLEKIIAHFLIQQYLKEDYSFTAYATISYLKIGPKANLLNNEAHAITMQVTKSTQNSFRAESSQTCHSEQGDKKMEAENLYFQSHHHHHHDYKDDDDK,soluble
8,SMAPWGKRLAGVRGVLLDISGVLYDSGAGGGTAIAGSVEAVARLKRSRLKVRFCTNESAASRAELVGQLQRLGFDISEQEVTAPAPAACQILKERGLRPYLLIHDGVRSEFDQIDTSNPNCVVIADAGESFSYQNMNNAFQVLMELEKPVLISLGKGRYYAATSGLMLDVGPYMKALEYACGIKAEVVGKPSPEFFKSALQAIGVEAHQAVMIGDDIVGDVGGAQRCGMRALQVRTGKFRPSDEHHPEVKADGYVDNLAEAVDLLLQHADK,soluble
9,MGSDKIHHHHHHMAHVGLAMHFRRDPNDRRKELTVSRFIEVVHKNAVASRNTADAFIKEMLHYNIAEYVAGGDGRTHPLQPTAATIERFTGWVTAHLRTLDHIDGGDRLGRYLDRPDMLATLQPLIADGLLASKPVREPHQTFSLFIWLNNGGIVMDWLMSGIDPDHAGLERIPTSVVSIGDFAKWLKLSRTHLGRKLRTAEELGSIGWLGQRGHSVMWVSHGFYEEYMTVQAAKLAVVDNAFKACFPPSQGDD,not soluble
10,ADMGEKFDATFKAQVKAAKADMVMLSPKDAYKLLQENPDITLIDVRDPDELKAMGKPDVKNYKHMSRGKLEPLLAKSGLDPEKPVVVFCKTAARAALAGKTLREYGFKTIYNSEGGMDKWLEEGLPSLDRSHHHHHH,soluble
11,GPGSMRGSDAMATHASRWRPPQNPAAVRKYSNETAAPQPPAKIIMEDHSLAEVFRRSAAFQRILAYVQGCSEAVESTPNHQRLSATVDDCDDTVRYLVTDYLPRLHDIVTAIPLEDMAQQRFGNRAKRVFHARLEETVVADMEKLVRTFPTSAGRSEEAITDMATEVAAYVMDSFGNATRLDYGSGHELHFFIVIMICLEEHGDGGGSLKDEPAVLVPLEVPPPPPVPPMERAEVRKRRQDYIFYIFHEYMRLVRRLQKRYSLEPAGSHGVWGLDDYHHIPYIFGGAQLINAEVQPVKPAAGQEAMLVLPKHICDRAKVEMLKDSYLYFSMIAWILENKTGPFHEHSNMLYNISGVEHWSKIYSGMVKMFAAEVLAKYNVSQHLLFGRHLPWNTKTM,soluble
12,MGSDKIHHHHHHMTERTLRGQVAVVGVGESEYYRAGHAPDPEFRLLLKAVLAACRDADIDPADIDGFASFADDRNDAVRIATALGVKRLRSTTMQWGGGGGGCAAAVANGAAAIMSGMAQCVLVYRGLAQGQFGRFGQAAPRASISGEMAYQMPYGVLAPPQKFAMKVQRFMHEHGVRREALRAIALASYQHAQANPRAVMHGKPLTAEAYDASRWIVEPFRLFDCCMENDGAGALLLVAAERAKDFPHRPVYLLGAASGGDWRAAASPHNAPHYASANYSGVSGDLYRMARVSPADVGVVQSYENFTGGVAMALSEHGFFHPDEANDFLTPENLVAPSGKLPLNTSGGNLGECYVHGFELVIEAARQVRGESTSQAARHDVALVIGGPMVTPASSLLFGSAATL,not soluble
13,MLCEIECRALSTAHTRLIHDFEPRDALTYLEGKNIFTEDHSELISKMSTRLERIANFLRIYRRQASELGPLIDFFNYNNQSHLADFLEDYIDFAINEPDLLRPVVIAPQFSRQMLDRKLLLGNVPKQMTCYIREYHVDRVIKKLDEMCDLDSFFLFLHGRAGSGKSVIASQALSKSDQLIGINYDSIVWLKDSGTAPKSTFDLFTDILLMLKSEDDLLNFPSVEHVTSVVLKRMICNALIDRPNTLFVFDDVVQEETIRWAQELRLRCLVTTRDVEISNAASQTCEFIEVTSLEIDECYDFLEAYGMPMPVGEKEEDVLNKTIELSSGNPATLMMFFKSCEPKTFEKMAQLNNKLESRGLVGVECITPYSYKSLAMALQRCVEVLSDEDRSALAFAVVMPPGVDIPVKLWSCVIPVDICSNEEEQLDDEVADRLKRLSKRGALLSGKRMPVLTFKIDHIIHMFLKHVVDAQTIANGISILEQRLLEIGNNNVSVPERHIPSHFQKFRRSSASEMYPKTTEETVIRPEDFPKFMQLHQKFYDSLKNFACC,soluble
14,MLNTLIVGASGYAGAELVTYVNRHPHMNITALTVSAQSNDAGKLISDLHPQLKGIVELPLQPMSDISEFSPGVDVVFLATAHEVSHDLAPQFLEAGCVVFDLSGAFRVNDATFYEKYYGFTHQYPELLEQAAYGLAEWCGNKLKEANLIAVPGCYPTAAQLALKPLIDADLLDLNQWPVINATSGVSGAGRKAAISNSFCEVSLQPYGVFTHRHQPEIATHLGADVIFTPHLGNFPRGILETITCRLKSGVTQAQVAQALQQAYAHKPLVRLYDKGVPALKNVVGLPFCDIGFAVQGEHLIIVATEDNLLKGAAAQAVQCANIRFGYAETQSLI,not soluble
15,MGSDKIHHHHHHMSMEAASLDAVSEEQAQSVSILEQAIFATKQTDSSRAEELIRSLTEEALKGTVQWDKNLTVTFNKAITRLDDIISKQLAAIMHNEELQKLEGSWRGLHHTVKNSETNETLKIRVMSLSKKELHKDLSKAVEFDQSQMFKKIYEAEFGTPGGEPYGCLVGDYEFSNHPEDVETLSLISNVAAAGFCPFVSAAGSSLFGFDEWTELSKPRDLEKVFESLEYTQWRSFRDSDDSRFVTLTMPRVLARLPYGEATKPVEEFCYEEFELDLESGRAKVADHDDYCWMNAAYVMATNMGQAFSKYGFCTAIRGAEGGGKVEGLPAHVFTSDDGDPDLKCPTEIGITDRREAELSKLGFLPLCHYKHTDYAVFFGSQSCQKPKIMSNHDATANAAISARLPYLMATSRFAHYLKVMARDKIGSFMEAEDVESWLNRWILSFVNASEGGGQEIRAKYPLADAKVEVKEIPGQPGSYNAVAWLRPWLQMEELTASLRLVAKIPKVG,not soluble
16,IVRPPFTYATLIRQAIMESSDRQLTLNEIYSWFTRTFAYFRRNAATWKNAVRHNLSLHKCFVRVENVKGAVWTVDEVEYQKRRSQKITGSPTL,soluble
17,SDPDADRVGIACKNDKGEWVLINGNQTCLMYLYYIITQYNKLGKMTGNEFCVKTIVTTELIKKIADKNHIEMLDCYTGFKWIAREIRLREGKKKYIGGGEESYGFLAEDFVRDKDAVSACCLIAEVAAWAKDNGKTLYQLLMDIYVEYGFSKE,not soluble
